{
  "source": "patent US20200239537A1",
  "about": "(GOVERNORS OF THE UNIVERSITY OF ALBERTA, published 2020)",
  "note": "*1 amine or outer side, *2 acyl side, *3 side chain or, on linkers, in order; H or OH if unused. Where no end group is shown, it is not given here. [ ]: non-standard residue; d: D form. The star is where a group is joined. azaArg = aza-arginine, alpha-carbon replaced by nitrogen, N=C(N)NCCCN(N[*:1])C(=O)[*:2]; Phe(4-Br) = N[C@@H](Cc1ccc(Br)cc1)C(=O)O; azaLeu = CC(C)CN(N[*:1])C(=O)[*:2]; Palmitoyl = CCCCCCCCCCCCCCCC(=O)*; αMeR = C[C@](N)(CCCNC(=N)N)C(=O)O; NMeL = CN[C@@H](CC(C)C)C(=O)O; αMeL = CC(C)C[C@](C)(N)C(=O)O; Nle = CCCC[C@H](N)C(=O)O; Aib = CC(C)(N)C(=O)O",
  "data": [
    {"biological_target": "T1, recombinant human APJ receptor (Chem-5-APJ cells) (human, UniProt P35414 1-380)", "T1 sequence (looked up)": "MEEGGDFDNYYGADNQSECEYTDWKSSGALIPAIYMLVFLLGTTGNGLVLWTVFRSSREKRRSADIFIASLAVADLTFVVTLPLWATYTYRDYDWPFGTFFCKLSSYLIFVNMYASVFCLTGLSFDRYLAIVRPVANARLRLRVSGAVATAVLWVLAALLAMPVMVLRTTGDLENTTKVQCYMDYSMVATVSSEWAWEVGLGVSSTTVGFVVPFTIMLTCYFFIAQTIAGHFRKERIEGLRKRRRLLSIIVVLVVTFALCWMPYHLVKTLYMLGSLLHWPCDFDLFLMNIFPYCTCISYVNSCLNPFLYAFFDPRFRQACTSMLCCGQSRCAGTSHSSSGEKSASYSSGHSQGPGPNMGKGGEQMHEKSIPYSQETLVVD", "assay": "cell-based or functional assay", "units": {"EC50 of Ca2+ mobilization, fold against the 17-mers": "fold"}, "values": [
      {"binder": "RQRPR[NMeL]SHKGP[Nle][Aib][Phe(4-Br)]", "note": "[Apelin-NMe14A2 (55)]", "EC50 of Ca2+ mobilization, fold against the 17-mers": "~200"},
      {"binder": "RQRPRLSHKGP[Nle][Aib][Phe(4-Br)]", "note": "[Apelin-14A2 (54)]", "EC50 of Ca2+ mobilization, fold against the 17-mers": "~200"}
    ]},
    {"biological_target": "T1, recombinant human APJ receptor …", "assay": "cell-based or functional assay", "remark": "another data set of the same source", "units": {"EC50 (nM), Ca2+ mobilization assay": "nM"}, "values": [
      {"binder": "KFRRQRPRLSHKGP[Nle][Aib][Phe(4-Br)] (not fully specified (N-terminus); also: Fmoc removal from PEG not given here)", "note": "[PEG-17A2 (57)]", "EC50 (nM), Ca2+ mobilization assay": 6.3},
      {"binder": "RQRPR[NMeL]SHKGP[Nle][Aib][Phe(4-Br)]", "note": "[Apelin-NMe14A2 (55)]", "EC50 (nM), Ca2+ mobilization assay": 176},
      {"binder": "RQRPRLSHKGP[Nle][Aib][Phe(4-Br)]", "note": "[Apelin-14A2 (54)]", "EC50 (nM), Ca2+ mobilization assay": 568},
      {"binder": "Palmitoyl-KFRRQRPRLSHKGP[Nle][Aib][Phe(4-Br)]", "note": "[PALM-17A2 (56)]", "EC50 (nM), Ca2+ mobilization assay": 2.6},
      {"binder": "KFRRQRPRLSHKGP[Nle][Aib][Phe(4-Br)] (Synthetic ACE2-resistant analogue; also called parent peptide 5)", "note": "[apelin-17 A2 (5)]", "EC50 (nM), Ca2+ mobilization assay": 4},
      {"binder": "KFRRQRPR[NMeL]SHKGP[Nle][Aib][Phe(4-Br)] (not fully specified (N-terminus); numbers in words are those of the source; also: N-terminal PEG from Fmoc-(PEG)6 propionic acid, Fmoc removal not given here)", "note": "[PEG-NMe17A2 (59)]", "EC50 (nM), Ca2+ mobilization assay": 2.5},
      {"binder": "Palmitoyl-KFRRQRPR[NMeL]SHKGP[Nle][Aib][Phe(4-Br)]", "note": "[PALM-NMe17A2 (58)]", "EC50 (nM), Ca2+ mobilization assay": 11.3}
    ]},
    {"biological_target": "T2, wild-type rat apelin receptor tagged at its C-terminus with EGFP (rat, UniProt Q9JHG3 1-377)", "T2 construct": "whole, on cells; Used as crude membrane preparations from CHO cells stably expressing the receptor; also called wild-type rat apelin receptor-EGFP; not shown: EGFP tag at the C-terminus", "T2 sequence (looked up)": "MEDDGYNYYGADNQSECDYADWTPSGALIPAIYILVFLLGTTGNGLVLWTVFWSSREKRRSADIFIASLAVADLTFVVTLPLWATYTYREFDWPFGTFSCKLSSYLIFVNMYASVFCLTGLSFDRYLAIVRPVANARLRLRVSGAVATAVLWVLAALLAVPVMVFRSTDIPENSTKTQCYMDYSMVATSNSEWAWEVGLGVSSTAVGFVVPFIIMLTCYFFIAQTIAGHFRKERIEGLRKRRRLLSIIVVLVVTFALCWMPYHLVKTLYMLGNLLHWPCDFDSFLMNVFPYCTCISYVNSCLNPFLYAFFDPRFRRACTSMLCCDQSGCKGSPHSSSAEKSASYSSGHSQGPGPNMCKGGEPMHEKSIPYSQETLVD", "assay": "displacement of 0.2 nM [125I]-pyr-1-apelin-13; membranes of CHO cells expressing rat apelin receptor-EGFP", "method": "This experiment evaluated the ability of peptides of the present embodiments to bind to the wild-type rat apelin receptor, in order to examine the impact of synthetic modification within the critical RPRL motif of the apelin peptides.\nThe reaction was stopped by adding 4 mL of cold binding buffer, filtered on Whatman GF/C filters and washed with 5 mL of cold binding buffer. Radioactivity was then counted using a Wizard 1470 Wallac gamma counter (Perkin Elmer, Turku, Finland). Binding experiment data were analyzed with GraphPad Prism.", "units": {"Ki": "nM", "times less potent than native 2": "fold", "factor of weaker affinity compared to 1": "fold"}, "values": [
      {"binder": "KFRRQRPR[azaLeu]SHKGP[Nle][Aib][Phe(4-Br)]", "note": "[azaLeu9 apelin-17 A2 peptide (19)]", "Ki": 0.15, "times less potent than native 2": "~3"},
      {"binder": "KFRRQRPRLSHKGPMPF (Native isoform; apelin residues 61-77; also called native apelin-17; native isoform 2)", "note": "[apelin-17 (2)]", "Ki": 0.053},
      {"binder": "KFRRQRP[azaArg]LSHKGP[Nle][Aib][Phe(4-Br)]", "note": "[azaArg8-apelin-17 A2 (17)]", "Ki": 0.14, "times less potent than native 2": "~3"},
      {"binder": "KFRRQRPRLSHKGP[Nle][Aib][Phe(4-Br)] (Synthetic ACE2-resistant analogue; also called parent peptide 5)", "note": "[apelin-17 A2 (5)]", "Ki": 0.19},
      {"binder": "KFRRQRPR[NMeL]SHKGP[Nle][Aib][Phe(4-Br)] (also called Apelin-NMe17A2; NMeLeu-17A2)", "note": "[N-MeLeu9-apelin-17 A2 (11)]", "Ki": 0.45, "times less potent than native 2": "~3"},
      {"binder": "KFRRQRPR[αMeL]SHKGP[Nle][Aib][Phe(4-Br)]", "note": "[α-MeLeu9-apelin-17 A2 (15)]", "Ki": 0.18, "times less potent than native 2": "~3"},
      {"binder": "KFRRQRPR[dL]SHKGP[Nle][Aib][Phe(4-Br)]", "note": "[D-Leu9-apelin-17 A2 (9)]", "Ki": 0.14, "times less potent than native 2": "~3"},
      {"binder": "XRPRLSHKGPXXX (pGlu at 1; Nle at 11; Aib at 12; paraBrPhe at 13, Synthetic ACE2-resistant analogue; also called parent peptide 4; none (A2))", "note": "[pyr-1-apelin-13 A2 (4)]", "Ki": 2, "factor of weaker affinity compared to 1": 6},
      {"binder": "KFRRQRP[αMeR]LSHKGP[Nle][Aib][Phe(4-Br)] (also called α-MeArc8-apelin-17 A2)", "note": "[α-MeArg8-apelin-17 A2 (13)]", "Ki": 0.13, "times less potent than native 2": "~3"}
    ]}
  ]
}
